What was measured:
Type in all cases: cell-based
rat PTHR [1] = molecular target: T1, rat PTHR (Rattus norvegicus, UniProt P25961); assay: Cellular cAMP accumulation in LLC-PK1 cells expressing rat PTHR; settings: EW5 cells
T1 construct: expressed in transfected cells; host or cells: LLC-PK1 porcine renal epithelial cells (EW5; also EW29, AR-C38, AR-B44)
T1 sequence (P25961 27-591): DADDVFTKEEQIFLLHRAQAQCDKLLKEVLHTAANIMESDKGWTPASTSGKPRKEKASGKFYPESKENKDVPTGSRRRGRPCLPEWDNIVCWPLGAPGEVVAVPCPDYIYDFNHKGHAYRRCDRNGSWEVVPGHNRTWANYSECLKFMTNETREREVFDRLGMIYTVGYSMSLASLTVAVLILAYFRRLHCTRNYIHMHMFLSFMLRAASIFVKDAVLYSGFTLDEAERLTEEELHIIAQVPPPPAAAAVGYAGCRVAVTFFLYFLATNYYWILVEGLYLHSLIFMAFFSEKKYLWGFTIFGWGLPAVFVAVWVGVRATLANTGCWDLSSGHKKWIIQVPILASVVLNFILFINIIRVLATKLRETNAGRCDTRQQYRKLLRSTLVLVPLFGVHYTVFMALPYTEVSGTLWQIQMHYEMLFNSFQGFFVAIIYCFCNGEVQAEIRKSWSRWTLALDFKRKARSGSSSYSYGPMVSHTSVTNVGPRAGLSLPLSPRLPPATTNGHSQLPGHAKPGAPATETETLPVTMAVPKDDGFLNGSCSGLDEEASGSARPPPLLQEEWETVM
Protocol: FIG. 10. Stimulation of cyclic AMP accumulation by hPTH(1-31) and hPTH(1-34) in LLC-PK1 cells that express rat PTHRs. Cyclic AMP accumulation was measured in response to hPTH(1-34) (●) or hPTH(1-31) (Δ) in EW5 cells that expressed 320,000 rat PTHRs per cell. Results are expressed as fold basal.
Cells were seeded into 24-well plates at a density of 2.5×10^5 cells/well and cultured for a further 2 days before study. The cells were rinsed once with 0.5 ml of ice-cold Buffer B [10 mM HEPES (pH 7.4), 130 mM NaCl, 5 mM KCl, 1.2 mM CaCl2, 1 mM MgCl2, 1.2 mM Na2HPO^4 5 mM glucose, and 0.1% heat-inactivated BSA] supplemented with 1 mM isobtylmethylxanthine (IBMX), and placed on ice. Treatments were added to each well in 0.25 ml of IBMX-supplemented Buffer B, after which the plates were incubated at 37° C. for 15 min. The buffer then was rapidly aspirated, the plates were rapidly transferred onto liquid nitrogen, and the frozen monolayers were subsequently thawed directly into 0.5 ml of 50 mM HCl. The extracted cAMP then was measured using a commercial RIA kit (Dupont-New England Nuclear, Boston, Mass.). Results were expressed as fold-basal, where basal levels ranged between 38 and 128 pmol/mg protein/15 min. The basal level of cAMP accumulation in native LLC-PK1 cells was not consistently altered in subclones that expressed wild type PTH/PTHrp receptors.

rat PTHR [2] = molecular target: T1, rat PTHR; assay: u-PA secretion bioassay in LLC-PK1 cells expressing rat PTHR
rat PTHR [3] = molecular target: T1, rat PTHR; assay: Cellular phosphate uptake in LLC-PK1 cells expressing rat PTHR
Protocol: Cells were seeded into 24-well plates at a density of 2.5×10^5 cells/well and cultured for a further 2 days before study. Twenty four hours before assay, cells were refed with 0.5 ml of DMEM containing 0.1% BSA. The next day, cells were refed with serum-free medium (DMEM+0.1% BSA) containing drugs or peptides, and the incubations were continued at 37° C. under 5% CO2 in air for another 6 hr. Cells then were washed with prewarmed Buffer B without BSA and Na2HPO4 and then were incubated at 37° C. for 5 min in 0.25 ml of the same buffer containing [^32P]orthophosphate (4 uCi/ml) and 0.1 mM Na2HPO4. Phosphate uptake was arrested by adding 1 ml of ice-cold sodium-free “stop buffer” [10 mM HEPES (pH 7.4), 140 mM choline chloride, and 5 mM sodium arsenate], followed by two further washes with same buffer. The drained cell layer then was solubilized in 0.5 ml of Lysis Buffer, and cell-associated radioactivity was determined by Cerenkov counting, as previously described (Guo, J., et al., Endocrinology 136:3884-3891 (1995)).
Responses to hPTH(1-34) or hPTH(1-31) (1000 nM) were measured in EW5 cells, which express 320,000 rat PTHRs per cell. Each value is the mean±SEM of a representative experiment performed in triplicate. Similar results were obtained in at least 3 individual experiments. […]

[4] = EW5 cells, 320,000 rat PTHRs per cell, peptide 1000 nM, mean±SEM

## hPTH(1-31)
Rat PTHR [1]
  activation of AC (in words): activated AC equivalently
Rat PTHR [2]; [4]
  u-PA Activity: 41.2 ± 1.2 units/well
Rat PTHR [2]; EW5 cells, 100 nM of either peptide
  u-PA production at 16 hr (in words): identical
Rat PTHR [3]; EW5 cells
  stimulation of phosphate uptake (in words): identical
Rat PTHR [3]; [4]
  Phosphate uptake: 134 ± 3 % of basal

From patent US7033773B1, “Screening assays for G protein coupled receptor agonists and antagonists” (The General Hospital Corporation, priority 1997, dated 2006)
